Test results reported in patent US20250099634A1, “METHOD OF TREATING CANCER” (Novartis AG, priority 2023, published 2025).
Where two headings read alike, the source gives them in different places.

How the values were obtained:
[1] = NETTER-2 deaths (Safety Set); type: in vivo, human
[2] = test system: Grade 2 and Grade 3 advanced GEP-NET; assay: NETTER-2 Progression-Free Survival (PFS), central review using RECIST 1.1; type: in vivo, human; details: for Kaplan-Meier event-free estimates (95% CI): PFS
Method: The primary efficacy end-point is PFS as measured by objective tumor response, which is determined by RECIST criteria, Version 1.1 (Eisenhauer, et al., 2009). Tumor response will be assessed locally and centrally.
It is recommended that for each patient identical acquisition and reconstruction protocols be used at all time-points. Central, blinded, real-time IRC (Independent Review Committee) assessment will be conducted for determining progressive disease. Changes from randomization date will be assessed at week 16±1, week 24±1 and then every 12±1 weeks until the PFS primary analysis End-Point has been reached, then until Week 72 after randomization, unless the patient progresses or dies.
The primary endpoint of the study is progression-free survival (PFS), defined as the time from the date of randomization to the date of the first documented progression or death due to any cause. PFS will be assessed via central review according to RECIST 1.1.
The stratification will be based on following randomization stratification factors (grade: G2 vs. G3; and tumor origin: pNET vs other origin).
Analyses will be based on the FAS population according to the randomized treatment group and strata assigned at randomization. The PFS distribution will be estimated using the Kaplan-Meier method, and Kaplan-Meier curves, median and associated 95% confidence intervals will be presented for each treatment group. The hazard ratio for PFS will be calculated, along with its 95% confidence interval, from a stratified Cox model using the same stratification factors as for the log-rank test.

[3] = All grades, randomized treatment period, Safety Set
[4] = Grade >=3, randomized treatment period, Safety Set
[5] = all grades, randomized treatment period
[6] = most frequent AEs, summary table
[7] = central review, RECIST 1.1, Full Analysis Set

C[C@@H](O)[C@H](NC(=O)[C@@H]1CSSC[C@H](NC(=O)[C@@H](Cc2ccccc2)NC(=O)CN2CCN(CC(=O)[O-])CCN(CC(=O)[O-])CCN(CC(=O)[O-])CC2)C(=O)N[C@@H](Cc2ccc(O)cc2)C(=O)N[C@H](Cc2c[nH]c3ccccc23)C(=O)N[C@@H](CCCCN)C(=O)N[C@@H]([C@@H](C)O)C(=O)N1)C(=O)O.[177Lu+3] [Lutathera, ^177Lu-DOTA^0-Tyr^3-Octreotate]
Number of Subjects who Died (Overall) ([1]; Safety Set): 32 (21.8) n (%) | Number of Subjects who Died (Overall), primary reason Adverse Event ([1]; Safety Set): 2 (1.4) n (%) | Number of Subjects who Died (Overall), primary reason Disease under Study ([1]; Safety Set): 30 (20.4) n (%) | Number of Subjects who Died on-treatment in randomized treatment period (within 30 days of last dose), primary reason Disease under Study ([1]; Safety Set): 2 (1.4) n (%) | Number of Subjects who Died on-treatment in re-treatment period (within 30 days of last dose) ([1]; Safety Set): 0 n (%) | Number of subjects who died in the post-treatment follow up period ([1]; Safety Set): 30 (20.4) n (%) | Number of subjects who died in the post-treatment follow up period, primary reason Adverse Event ([1]; Safety Set): 2 (1.4) n (%) | Number of subjects who died in the post-treatment follow up period, primary reason Disease under Study ([1]; Safety Set): 28 (19.0) n (%) | cause of death: adverse event ([1]; during the study): 1.4% | cause of death: disease under study ([1]; during the study): 20.4% | subjects died during the study ([1]; during the study): 21.8% | subjects died within 30 days after the last dose ([1]; randomized treatment period): 1.4% | AEs leading to discontinuation of Any Treatment (Lutathera, Octreotide) [3]: 7 (4.8) n (%) | AEs leading to discontinuation of Lutathera [3]: 3 (2.0) n (%) | AEs leading to discontinuation of Octreotide [3]: 5 (3.4) n (%) | AEs leading to dose interruption of Any Treatment (Lutathera, Octreotide) [3]: 23 (15.6) n (%) | AEs leading to dose interruption of Lutathera [3]: 14 (9.5) n (%) | AEs leading to dose reduction of Any Treatment (Lutathera, Octreotide) [3]: 3 (2.0) n (%) | AEs leading to dose reduction of Lutathera [3]: 2 (1.4) n (%) | AEs leading to dose reduction of Octreotide [3]: 1 (0.7) n (%) | AEs requiring additional therapy [3]: 109 (74.1) n (%) | Adverse event: Abdominal pain [3]: 26 (17.7) n (%) | Adverse event: Alanine aminotransferase increased [3]: 16 (10.9) n (%) | Adverse event: Alopecia [3]: 22 (15.0) n (%) | Adverse event: Anaemia [3]: 29 (19.7) n (%) | Adverse event: Aspartate aminotransferase increased [3]: 16 (10.9) n (%) | Adverse event: Asthenia [3]: 28 (19.0) n (%) | Adverse event: COVID-19 [3]: 28 (19.0) n (%) | Adverse event: Constipation [3]: 15 (10.2) n (%) | Adverse event: Diarrhoea [3]: 38 (25.9) n (%) | Adverse event: Fatigue [3]: 29 (19.7) n (%) | Adverse event: Gamma-glutamyltransferase increased [3]: 12 (8.2) n (%) | Adverse event: Headache [3]: 16 (10.9) n (%) | Adverse event: Hyperglycaemia [3]: 20 (13.6) n (%) | Adverse event: Lymphocyte count decreased [3]: 16 (10.9) n (%) | Adverse event: Nausea [3]: 40 (27.2) n (%) | Adverse event: Oedema peripheral [3]: 17 (11.6) n (%) | Adverse event: Platelet count decreased [3]: 25 (17.0) n (%) | Adverse event: Vomiting [3]: 21 (14.3) n (%) | Adverse event: Weight increased [3]: 18 (12.2) n (%) | Adverse events [3]: 136 (92.5) n (%) | Adverse events Related to Amino Acids [3]: 22 (15.0) n (%) | Adverse events Related to Any Treatment [3]: 101 (68.7) n (%) | Adverse events Related to Lutathera [3]: 96 (65.3) n (%) | Adverse events Related to Octreotide [3]: 55 (37.4) n (%) | Adverse events: Number of subjects with at least one event [3]: 136 (92.5) n (%) | AEs leading to discontinuation of Any Treatment (Lutathera, Octreotide) [4]: 4 (2.7) n (%) | AEs leading to discontinuation of Lutathera [4]: 1 (0.7) n (%) | AEs leading to discontinuation of Octreotide [4]: 3 (2.0) n (%) | AEs leading to dose interruption of Any Treatment (Lutathera, Octreotide) [4]: 7 (4.8) n (%) | AEs leading to dose interruption of Lutathera [4]: 3 (2.0) n (%) | AEs leading to dose interruption of Octreotide [4]: 7 (4.8) n (%) | AEs leading to dose reduction of Any Treatment (Lutathera, Octreotide) [4]: 1 (0.7) n (%) | AEs leading to dose reduction of Lutathera [4]: 1 (0.7) n (%) | AEs leading to dose reduction of Octreotide [4]: 0 n (%) | AEs requiring additional therapy [4]: 28 (19.0) n (%) | Adverse event: Abdominal pain [4]: 4 (2.7) n (%) | Adverse event: Alanine aminotransferase increased [4]: 1 (0.7) n (%) | Adverse event: Alopecia [4]: 0 n (%) | Adverse event: Anaemia [4]: 1 (0.7) n (%) | Adverse event: Aspartate aminotransferase increased [4]: 1 (0.7) n (%) | Adverse event: Asthenia [4]: 1 (0.7) n (%) | Adverse event: COVID-19 [4]: 0 n (%) | Adverse event: Constipation [4]: 1 (0.7) n (%) | Adverse event: Decreased appetite [4]: 0 n (%) | Adverse event: Diarrhoea [4]: 2 (1.4) n (%) | Adverse event: Fatigue [4]: 0 n (%) | Adverse event: Gamma-glutamyltransferase increased [4]: 7 (4.8) n (%) | Adverse event: Headache [4]: 0 n (%) | Adverse event: Hyperglycaemia [4]: 0 n (%) | Adverse event: Lymphocyte count decreased [4]: 8 (5.4) n (%) | Adverse event: Nausea [4]: 1 (0.7) n (%) | Adverse event: Oedema peripheral [4]: 0 n (%) | Adverse event: Platelet count decreased [4]: 2 (1.4) n (%) | Adverse event: Vomiting [4]: 1 (0.7) n (%) | Adverse event: Weight increased [4]: 2 (1.4) n (%) | Adverse event: White blood cell count decreased [4]: 3 (2.0) n (%) | Adverse events [4]: 52 (35.4) n (%) | Adverse events Related to Amino Acids [4]: 1 (0.7) n (%) | Adverse events Related to Any Treatment [4]: 23 (15.6) n (%) | Adverse events Related to Lutathera [4]: 22 (15.0) n (%) | Adverse events Related to Octreotide [4]: 2 (1.4) n (%) | Adverse events: Number of subjects with at least one event [4]: 52 (35.4) n (%) | adverse event by preferred term: abdominal pain [5]: 17.7% | adverse event by preferred term: diarrhoea [5]: 25.9% | adverse event by preferred term: nausea [5]: 27.2% | safety findings in NETTER-2 (consistent with established safety profile): No new or unexpected safety findings | Incidence of AEs: Abdominal pain [6]: 26 (17.7) (%) | Incidence of AEs: Diarrhoea [6]: 38 (25.9) (%) | Incidence of AEs: Nausea [6]: 40 (27.2) (%) | AEs leading to discontinuation of Lutathera (randomized treatment period): 2.0% vs. NA | AEs leading to discontinuation of Lutathera and/or Octreotide (randomized treatment period): 4.8% | AEs leading to discontinuation of Octreotide (randomized treatment period): 3.4% | Any AEs (randomized treatment period): 92.5% | Grade 3/4 AE: GGT increased (randomized treatment period): 4.8% | Grade 3/4 AE: Lymphocyte count decreased (randomized treatment period): 5.4% | Grade 3/4 AE: abdominal pain (randomized treatment period): 2.7% | Grade 3/4 AE: small intestinal obstruction (randomized treatment period): 3.4% | Grade ≥3 AEs (randomized treatment period): 35.4% | Grade ≥3 AEs, Treatment-related (randomized treatment period): 15.6% | Kaplan-Meier event-free estimates (95% CI) ([2]; 4 months, Full Analysis Set): 95.8 (91.0, 98.1) % | Kaplan-Meier event-free estimates (95% CI) ([2]; 6 months, Full Analysis Set): 92.3 (86.6, 95.7) % | Kaplan-Meier event-free estimates (95% CI) ([2]; 9 months, Full Analysis Set): 85.6 (78.6, 90.5) % | Kaplan-Meier event-free estimates (95% CI) ([2]; 12 months, Full Analysis Set): 80.7 (72.9, 86.4) % | Kaplan-Meier event-free estimates (95% CI) ([2]; 15 months, Full Analysis Set): 71.0 (61.9, 78.3) % | Kaplan-Meier event-free estimates (95% CI) ([2]; 18 months, Full Analysis Set): 66.5 (56.9, 74.4) % | Kaplan-Meier event-free estimates (95% CI) ([2]; 24 months, Full Analysis Set): 49.8 (38.5, 60.1) % | Kaplan-Meier event-free estimates (95% CI) ([2]; 30 months, Full Analysis Set): 36.1 (22.3, 50.1) % | PFS Events ([2]; Full Analysis Set): 55 (36.4) n (%) | PFS events: Deaths ([2]; Full Analysis Set): 8 (5.3) n (%) | PFS events: Progression ([2]; Full Analysis Set): 47 (31.1) n (%) | estimated risk reduction (progression or death) ([2]; Lutathera arm compared to High-dose Octreotide arm): 72% | PFS 25th percentile (95% CI) [2, 7]: 14.1 (10.9, 17.0) months | PFS 75th percentile (95% CI) [2, 7]: NE (29.0, NE)
